We go through 3 substances from patent publication US20050164936A1.

Common to all, as to assay: cell-based or functional assay
Test [1] has as its target T1, CC chemokine receptor CCR1 (UniProt P32246).
T1 sequence (looked up): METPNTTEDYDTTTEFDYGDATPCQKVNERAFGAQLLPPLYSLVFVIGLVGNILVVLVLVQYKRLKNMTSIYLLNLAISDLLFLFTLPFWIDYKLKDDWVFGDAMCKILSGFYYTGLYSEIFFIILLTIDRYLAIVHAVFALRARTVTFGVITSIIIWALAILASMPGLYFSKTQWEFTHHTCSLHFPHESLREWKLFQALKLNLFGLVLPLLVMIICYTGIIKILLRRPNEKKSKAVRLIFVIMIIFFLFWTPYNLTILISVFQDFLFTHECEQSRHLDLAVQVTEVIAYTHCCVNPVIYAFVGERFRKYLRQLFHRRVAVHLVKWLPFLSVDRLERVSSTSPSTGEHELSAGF

For test [2], the target named is T2, CC chemokine receptor CCR3 (UniProt P51677).
T2 sequence (looked up): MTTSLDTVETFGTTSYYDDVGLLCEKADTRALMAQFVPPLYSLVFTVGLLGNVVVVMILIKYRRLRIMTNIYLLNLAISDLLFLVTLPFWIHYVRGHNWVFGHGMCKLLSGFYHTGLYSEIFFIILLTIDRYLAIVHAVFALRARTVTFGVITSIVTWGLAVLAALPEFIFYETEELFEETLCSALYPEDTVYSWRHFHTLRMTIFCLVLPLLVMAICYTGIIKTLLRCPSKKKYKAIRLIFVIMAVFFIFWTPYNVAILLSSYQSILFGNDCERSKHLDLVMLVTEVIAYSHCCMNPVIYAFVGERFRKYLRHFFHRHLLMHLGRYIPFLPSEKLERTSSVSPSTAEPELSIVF

Test [3] concerns the target CC chemokine receptor CCR5 (human) (UniProt P51681).
A further test addresses RANTES(1-68) (human) (UniProt P13501).

CC chemokine receptor CCR5 (human), sequence (P51681 whole entry): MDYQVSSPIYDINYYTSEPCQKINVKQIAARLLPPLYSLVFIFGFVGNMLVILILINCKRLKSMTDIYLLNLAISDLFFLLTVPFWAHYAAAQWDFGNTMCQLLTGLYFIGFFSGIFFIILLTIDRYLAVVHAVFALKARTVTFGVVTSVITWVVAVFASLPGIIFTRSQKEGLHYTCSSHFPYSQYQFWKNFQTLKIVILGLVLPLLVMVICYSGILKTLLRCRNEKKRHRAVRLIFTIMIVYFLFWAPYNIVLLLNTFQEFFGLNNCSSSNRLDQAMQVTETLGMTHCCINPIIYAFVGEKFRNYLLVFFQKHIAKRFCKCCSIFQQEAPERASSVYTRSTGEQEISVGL
RANTES(1-68), sequence (P13501 24-91 limits assumed): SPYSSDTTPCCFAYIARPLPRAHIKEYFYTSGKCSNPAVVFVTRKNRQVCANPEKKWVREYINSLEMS
RANTES(3-68), sequence (P13501 26-91 limits assumed): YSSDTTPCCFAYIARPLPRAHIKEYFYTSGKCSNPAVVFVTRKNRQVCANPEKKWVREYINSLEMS
soluble CD26 (sCD26), sequence (P27487 39-766 limits assumed): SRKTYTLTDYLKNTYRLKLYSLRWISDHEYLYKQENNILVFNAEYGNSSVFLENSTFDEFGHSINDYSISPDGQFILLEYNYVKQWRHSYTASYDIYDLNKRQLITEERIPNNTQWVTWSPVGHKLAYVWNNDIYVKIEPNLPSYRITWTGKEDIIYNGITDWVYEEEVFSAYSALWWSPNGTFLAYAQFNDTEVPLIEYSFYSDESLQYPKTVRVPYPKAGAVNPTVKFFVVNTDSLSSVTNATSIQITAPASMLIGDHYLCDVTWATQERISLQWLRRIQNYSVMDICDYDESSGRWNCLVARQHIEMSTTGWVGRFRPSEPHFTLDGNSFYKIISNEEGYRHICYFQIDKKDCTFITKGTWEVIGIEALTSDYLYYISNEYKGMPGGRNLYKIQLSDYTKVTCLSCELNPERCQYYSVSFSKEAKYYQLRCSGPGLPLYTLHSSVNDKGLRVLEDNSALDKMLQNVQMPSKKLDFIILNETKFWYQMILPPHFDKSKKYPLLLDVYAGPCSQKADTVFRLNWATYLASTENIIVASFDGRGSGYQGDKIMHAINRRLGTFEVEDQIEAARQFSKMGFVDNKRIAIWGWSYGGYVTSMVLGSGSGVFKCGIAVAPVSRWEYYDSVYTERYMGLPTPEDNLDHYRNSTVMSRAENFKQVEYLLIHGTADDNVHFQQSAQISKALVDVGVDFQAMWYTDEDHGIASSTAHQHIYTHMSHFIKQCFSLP
RANTES(1-68) (human), sequence (P13501 24-91 limits assumed): as the sequence (P13501 24-91 limits assumed) above

In test [1], “RANTES(1-68) (from UniProt P13501 24-91) (ligand)” came in with an Increase in [Ca2+]i (nM) at 10 ng/ml, HOS cells transfected with CD4 and CCR1 of less than 16 nM; an Increase in [Ca2+]i (nM) at 30 ng/ml, HOS cells transfected with CD4 and CCR1 of 25 nM; an Increase in [Ca2+]i (nM) at 100 ng/ml, HOS cells transfected with CD4 and CCR1 of 100 nM; an Increase in [Ca2+]i (nM) at 300 ng/ml, HOS cells transfected with CD4 and CCR1 of 133 nM. In addition, in test [2], the concentration sufficient to increase [Ca2+]i in HOS cells transfected with CCR3 was found to be 100 ng/mL. Further, in test [3], the IC50, inhibition of HIV-1 BaL replication in HOS.CD4.CCR5 cells (p24 Ag ELISA) is greater than 0.13 µM; the IC50, inhibition of HIV-1 BaL replication in U87.CD4.CCR5 cells (p24 Ag ELISA) came out at 0.021 µM; the IC90, inhibition of HIV-1 BaL replication in HOS.CD4.CCR5 cells (p24 Ag ELISA) is greater than 0.13 µM; the IC90, inhibition of HIV-1 BaL replication in U87.CD4.CCR5 cells (p24 Ag ELISA) was greater than 0.13 µM. Further, in test [3], the Increase in [Ca2+]i (nM) at 10 ng/ml, HOS cells transfected with CD4 and CCR5 was less than 15 nM; the Increase in [Ca2+]i (nM) at 30 ng/ml, HOS cells transfected with CD4 and CCR5 amounted to 24 nM; the Increase in [Ca2+]i (nM) at 100 ng/ml, HOS cells transfected with CD4 and CCR5 is 60 nM; the Increase in [Ca2+]i (nM) at 300 ng/ml, HOS cells transfected with CD4 and CCR5 came out at 96 nM. Besides, the inhibition of the [Ca2+]i rise by a subsequent challenge with intact RANTES (100 ng/ml) after pre-incubation of CCR5-transfected cells with a 3- to 10-fold excess in test [3] turned out to be 75%.
In test [1], “RANTES(3-68) (from UniProt P13501 26-91) (ligand)” had an Increase in [Ca2+]i (nM) at 30 ng/ml, HOS cells transfected with CD4 and CCR1 of less than 15 nM; an Increase in [Ca2+]i (nM) at 100 ng/ml, HOS cells transfected with CD4 and CCR1 of less than 15 nM; an Increase in [Ca2+]i (nM) at 300 ng/ml, HOS cells transfected with CD4 and CCR1 of 19 nM. In addition, in test [2], the concentration needed to increase [Ca2+]i in HOS cells transfected with CCR3 is greater than 300 ng/mL. In test [3], the IC50, inhibition of HIV-1 BaL replication in HOS.CD4.CCR5 cells (p24 Ag ELISA) worked out at 0.0055 µM; the IC50, inhibition of HIV-1 BaL replication in U87.CD4.CCR5 cells (p24 Ag ELISA) stood at 0.00065 µM; the IC90, inhibition of HIV-1 BaL replication in HOS.CD4.CCR5 cells (p24 Ag ELISA) was greater than 0.13 µM; the IC90, inhibition of HIV-1 BaL replication in U87.CD4.CCR5 cells (p24 Ag ELISA) is 0.063 µM. In test [3], this substance gave an Increase in [Ca2+]i (nM) at 10 ng/ml, HOS cells transfected with CD4 and CCR5 of less than 15 nM; an Increase in [Ca2+]i (nM) at 30 ng/ml, HOS cells transfected with CD4 and CCR5 of 56 nM; an Increase in [Ca2+]i (nM) at 100 ng/ml, HOS cells transfected with CD4 and CCR5 of 76 nM; an Increase in [Ca2+]i (nM) at 300 ng/ml, HOS cells transfected with CD4 and CCR5 of 119 nM. Besides, the inhibition of the [Ca2+]i rise by a subsequent challenge with intact RANTES (100 ng/ml) after pre-incubation of CCR5-transfected cells with a 3- to 10-fold excess in test [3] amounted to 75%.
As to “soluble CD26 (sCD26) (from UniProt P27487 39-766) (enzyme)”, the IC50 of RANTES(1-68) against HIV-1 BaL in HOS.CD4.CCR5 cells when sCD26 at 50 U/l is added (p24 Ag ELISA) in the test with RANTES(1-68) (human) worked out at 0.013 µM.
